# Measured values taken from US6861508B2, “Transcriptional intermediary factor-2” (Institut National de la Sante et de la Recherche Medicale, priority 1996, dated 2005).
# B1: TIF2.5: TIF2 fragment amino acids 624-869, isolated NID (protein)
# chain: ERADGQSRLHDSKGQTKLLQLLTTKSDQMEPSPLASSLSDTNKDSTGSLPGSGSTHGTSLKEKHKILHRLLQDSSSPVDLAKLTAEATGKDLSQESSSTAPGSEVTIKQEPVSPKKKENALLRYLLDKDDTKDIGLPEITPKLERLDSKTDPASNTKLIAMKTEKEEMSFEPGDQPGSELDNLEEILDDLQNSQLPQLFPDTRPGAPAGSVDKQAIINDLMQLTAENSPVTPVGAQKTALRISQST
# Legend:
# ER, RARα and RXRα LBDs = test: GST pull-down of TIF2 polypeptides with NR LBDs; assay type: binding; settings: in vitro, with or without 10^−6 M ligand
# Description: (b) Mapping of the nuclear receptor-interacting domain of TIF2.
# (c-d) Interaction of TIF2 NID mutants with NRs in vitro. […] For quantification of point mutant interactions, see below.
# (e-f) Effect of TIF2 NID point mutations on stimulation of NR AF-2 activity. Cos-1 cells were cotransfected with 1 μg of the (17m)5-TATA-CAT reporter, 0.2 μg of GAL-hERα(EF) or GAL-mRXRα(DE), and 2.5 μg of the TIF2.1 wildtype or mutated fragments, as indicated. […] Each bar represents the mean value obtained from at least three (interaction) or at least four (transactivation) experiments, respectively; standard deviations are indicated. Note that the absolute values for TIF2.1 wildtype activity varied by ±16% when cotransfected with GAL-hERα(EF) and by ±34% when cotransfected with GAL-mRXRα(DE). In the in-vitro-interaction assays, the affinity of the TIF2.1 wildtype standard varied by less than ±25%. Expression levels of TIF2 mutants in the cells were verified by Western blot (not shown) with mouse monoclonal antibody 3Ti3F1, which is directed against an epitope outside the mutated area.
# To further delineate the TIF2 NR interaction domain (NID), we studied the interaction between a series of TIF2 deletion mutants and the ER or RARα LBDs, using GST-fusion protein-based in vitro assays. In both cases, an NWD was mapped to the central region of TIF2 (amino acids 624-869 in mutant TIF2.5; see FIGS. 7a and b). No additional NWD could be identified in the N- or C-termini of TIF2 (FIGS. 7a and b; mutants TIF2.0, TIF2.2 and TIF2.7). Note that, in contrast, SRC-1, a paralogue of TIF2, apparently harbours two distinct non-contiguous NIDs located in the central and C-terminal regions (Onate, S. A. et al., Science 270:1354-1357 (1995), Yao, T. P. et al., Proc. Natl. Acad. Sci. USA 93:10626-10631 (1996); Zhu, Y. et al., Gene Epression 6:185-195 (1996)).
# GAL4 reporter = test: GAL4 DBD-TIF2 fusion CAT reporter transactivation assay; assay type: cell-based; settings: Cos-1 and/or HeLa cells
# Summary of the method: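 Transiently transfected HeLa and Cos-1 cells received plasmids (3 μg; 1-10 μg in titration) expressing TIF2 regions or mutants fused to GAL4 DBD(1-147), plus 1 μg (17m)5-G-CAT reporter. CAT activity measured by TLC phosphoimaging or CAT ELISA, normalized to cotransfected β-galactosidase, expressed as fold over GAL4 DBD alone; mean of ≥3 experiments.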
# [1] = test system: AF-2 activity of ER, RXRα and RARα; test: dominant negative effect on NR AF-2 activity, (17m)5-TATA-CAT reporter; assay type: cell-based; settings: HeLa and Cos-1 cells
# Excerpt: FIG. 12(a-d). The isolated nuclear receptor-interacting domain (ND) of TIF2 acts dominant-negatively on the transcriptional activation by the ER, RXR and RAR LBDs. The mean value of induction obtained from the quantitation of at least three experiments (relative to the respective receptor LBD activity in absence of recombinant TIF2) is indicated below each panel. Expression levels of TIF2, TIF2.1 and TIF2.5 were routinely verified by Western blot with mouse monoclonal antibody 3Ti3C11 directed against a region of TIF2.5 (not shown).
# (b-d) Full length TIF2 and the coactivator fragment TIF2.1 enhance, whereas the nuclear receptor interacting domain TJF2.5 blocks the activity of the ER, RXR and RAR LBDs. Cos-1 and HeLa cells were cotransfected with 1 μg of the (17m)5-TATA-CAT reporter and 0.2 μg of the expression vector encoding the respective GAL DBD-fusion of hERα(EF), mRXRα(DE) or mRARα(DEF).
# Assuming that TIF2 or coactivators recognizing the TIF2 interacting surface on NR LBDs, generally mediate the AF-2 function of NRs, the NID containing TIF2.5 should exert its dominant negative activity not only on ER, but also on other NRs, independently of the cellular context. We therefore analyzed the effect of TIF2.5 on the AF-2 activity of ER, RXRα and RARα in HeLa and in Cos-1 cells (FIGS. 12b-d).
molecule,measurement,setting,value
B1,"binding to NRs (ER, RARα LBDs)","ER, RARα and RXRα LBDs",can bind to NRs
same,transcriptional activation of GAL4 reporter by GAL4 DBD fusion,GAL4 reporter,cannot activate transcription
same,effect on NR AF-2 activity,[1],dose-dependent inhibition of the NR AF-2 activity
